# Reference: the DeepSol protein solubility set
# Assay: soluble on expression in E. coli; label from the status in PepcDB or PDB records
row,Sequence,soluble on expression in E. coli
1,MGSDKIHHHHHHMRVYFDNNATTRVDDRVLEEMIVFYREKYGNPNSAHGMGIEANLHMEKAREKVAKVLGVSPSEIFFTSCATESINWILKTVAETFEKRKRTIITTPIEHKAVLETMKYLSMKGFKVKYVPVDSRGVVKLEELEKLVDEDTFLVSIMAANNEVGTIQPVEDVTRIVKKKNKETLVHVDAVQTIGKIPFSLEKLEVDYASFSAHKFHGPKGVGITYIRKGVPIRPLIHGGGQERGLRSGTQNVPGIVGAARAMEIAVEELSEAAKHMEKLRSKLVSGLMNLGAHIITPLEISLPNTLSVSFPNIRGSTLQNLLSGYGIYVSTSSACTSKDERLSHVLDAMGVDRRIAQGAIRISLCKYNTEEEVDYFLKKIEEILSFLDLTGNNRR,not soluble
2,MGSDKIHHHHHHMTVLQLPIIDISGLTCQRNNSSDVVAQQIKQACQDYGFFYIVGHGVDEQLQTQLEHLSQEFFAQDQETKLKISMALGGRAWRGYFPVGNELTSGRPDLKEGIYFGSELKDNHPLVKAGTPMHGRNLFPSNIPQFRETVLEYIDSMTKLGHILMAGIALSLDLDKSYFAERYTKDPLILFRIFNYPPNLGSQSEWGVGEHTDYGVLTILKQDNIGGLQVKSKSGWIDAPPIPGSFVCNIGDMLDRMTRGLYRSTPHRVRNLSTSNRLSFPFFFDPNFNVEVKPIDLKDVVVKDDQSDRWDKASVHEFRGTYGDYLLKKVSKVFPELRQKVL,not soluble
3,MTPPEERQMLRETVASLVAKHAGPAAVRAAMASDRGYDESLWRLLCEQVGAAALVIPEELGGAGGELADAAIVVQELGRALVPSPLLGTTLAELALLAAAKPDAQALTELAQGSAIGALVLDPDYVVNGDIADIVVAATSGQLTRWTRFSAQPVATMDPTRRLARLQSEETEPLCPDPGIADTAAILLAAEQIGAAERCLQLTVEYAKSRVQFGRPIGSFQALKHRMADLYVTIAAARAVVADACHAPTPTNAATARLAASEALSTAAAEGIQLHGGIAITWEHDMHLYFKRAHGSAQLLESPREVLRRLESEVWESP,not soluble
4,MRSSTIPAITPAYDPWEAYVDIKEYGKLQLTNIEFTTTTLCNMRCEHCAVGYTLTMKDPEALPLDMLLRRLEEIPHLRSLSITGGEPMLSLKSVEQYVVPLLRYAHERGVRTQLNSNLTLDLSRYEPVIPYLDVLHISHNWGTVDDFVEGGFAMMERKPTRAQREKYFQRMLDNAKALANAGVMVSAETMLNKRTVRHLEAIHRQVVEEMGCQRHEIHPMYPSDFASALETLSLDELREAIHHLLDIRDENVWMLFGTLPFYPCSDNEEDVRLLKRLYESKNVTVRNDPDGRSRLNVNIFTGDVIVTDFGDEPPLGNIIHDSLPDVYDKWRRSKLARELLCHCPSARCLGPNVLVKQTYYRGVDFTKRSARIGR,not soluble
5,MKSLPYTIALLFCGLIIVSMAAKGHSTDTDESVQKWEQLAWSKIQDEYKGASFSDYAYMGRTEVNDQQTKDVFRVTVRQKDDTFSVRAEVYFHPVTNHMISINVFRLMAGDPLEHHHHHH,soluble
6,MGSDKIHHHHHHMESIENSYGRLLLESQLPDSAKQLAQPLKSVVILRGKMICQRCHYQLDEEARLPSGAYYCRFCLVFGRNQSDKLLYAIPPMHFPKGNYLVWGGQLTAYQEMISQQLLINMQNQKTTLVHAVTGAGKTEMIYAAIEAVINTGGWVCIASPRVDVCVEVATRLSQAFSCSICLMHAESLPYQRAPIIVATTHQLLKFHKAFDLLIIDEVDAFPFVNNIQLHYAASQALKEGGAKILLTATSTRTLERKVNKGEVVKLTLARRFHNRPLVIPKFIRSFNLFKMIHRQKLPLKILKYLKKQRKTGYPLLIFLPTIIMAESVTAILKELLPAEQIACVSSQSQNRKEDITAFRQGKKTILITTSILERGVTFPQIDVFVLGSHHRVYSSQSLVQIAGRVGRSIDRPDGTLYFFHEGISKAMLLARKEIKEMNYKGYSHDLSTMSTN,not soluble
7,MGSDKIHHHHHHAQRGKRAMNRIDREVQETVFIPKGTWMAGGTVSYSEHDEGNLNFLVLKNVEGKGYNFGVSPYVGYFFRNNISAGMRFAYHRDYLDLKNFELNLGEDFNISLDNLYYLEHKYEVSGFLRTYMPIGRSKIFGLFNEARLTYGYGTGKNSTGTGATYDGSYQTAQNLQIGIAPGMTAFITDWSAVEVSVGVMGFDFKWIDQKTNQIEEGHQRVSSGNFKINLFSINIGMTFYL,not soluble
8,MSDSDIPSSTLYKDNVDWKDITPIYPSKEEEVAVKIAVTEDFTDAFAYFRAILIKNEKSDRVMALLEDCIRLNPANYTVWQYRRVCLTELGWDLKKEMRYLSDIIQESPKNYQVWHHRRFIVETIGESAVNDELHFCSEVIRDENKNYHAWQHRQWVVRTFKVPLEKELTFALHMLLLDNRNNSAYNYRYFLMTLYDKTEDASQLDIEINLAKKFIENIPNNESAWNYLAGLLITNGVTSNSDVVSFVEDLYETTPEEKRSPFLLAFIADMMLENIENQKSAEESAGRAKKLYKDLQSIDPVRVNYYRHQSLLAQTMLIKAQTKVTAK,not soluble
9,MGSDKIHHHHHHMPFENAPHLVFWEVTKACPLSCKHCRANAIDKPLPGELSTEESKKLLEDIARFGKVVIVFTGGDPLSRSDIFEIMEYAKSLGLIVSIAPSPSYRLRDETMKMISNYARYMSISIDGATSQTHDWLRGLGSYNYALRGIELGLKYGIQVQVNTLVWKKSYSELPFLVKLLKELGVKVWEVFFLIPVGRGVIELDIPKEKYKDVIDFLVETTRYDLVVRTVEAPFFRRAKLEYTPSTIKSNELVSKLRELLGEPVKDVDKSVLPTRDGSGVIFIGYNGDVYPSGFLPLYLGNVRKESIVDIYRKSEVLKIIKDGRFDGKCGVCKFNNICGGSRARAFAVYNNPFAEDPMCPY,not soluble
10,MKVDRPSRSPFPQRIPQKFWKKINDENWIDVFDCKKIKERKQEFFWYKLDPLDLAKAVAMASQMNDRGVIPYPTPTLNDALNDHAALIRALNDSSIKKLFKEVRFFCTMRKRFSTIRNNPISVKREPTNF,soluble
11,MVARIYRPAKTAMQSGKAKTDQWLLEYEPEKPRVVEPLMGYTSSGDMKSQIRLFFASQEEAVAYATRNDIPYRLMEPHEPKRRKVSYSDNFRFDRPQPWTHLEHHHHHH,not soluble
12,MKMTSRKLSDILKKRLQNDSWSFHFDREKDSLRIEDKNTGKGITLELPGIIAKWEQKKDDAIDEVVYYTEEALNAMKGQSQEMEGRESLIYPVIRSTSFPEKSSAGVPLVFDGHTAETRIYYALDLGNTYRLIDEKMLEKEGWTKERIRETASFNLRSLQTVVKEDEVAGNHFYFFRANDGYDASRVLNESILAEYEKNAEGTLAVSIPHQDVLIIADIRNNAGYDILGQMSMSFFANGTVPITALSFLYEDGKLEPIFILAKNRPKK,not soluble
13,MGSDKIHHHHHHMEKILTKQEIEALLAAVFEGKIEPDKELAKAEATVQSYDLFSSESKGNIPNLDIIYDSFIRYQRGTLSNRLGRIVEIKKVGAASFKFDDFLHTMPSPVAMAVYKADPLKGAALIAFDSTLVFTIVDCILGGTGSSVVPTVGNRMFTSIELRLVQKIVMDVLADLEKAWAPIYATKMGFLRMEMNPRLVNIVPPEYQVVTMEMEIQIEEIIGKMIFAVPLTTIDPVREKLKNGAQVDMMAIDPQWSFRLSKELLEAPLDLSVEVGGAIISMDELLNLTPGDTIMLDTPCNSDLVVKVGGVSKFMSAPGLRHGNKAAQITTIIGKGREQ,not soluble
